Data taken from the DeepSol protein solubility set.

Experiment: soluble on expression in E. coli; label from the status in PepcDB or PDB records

| Sequence | soluble on expression in E. coli |
| --- | --- |
| CILRFIACNGQTRAVQSRGDYQKTLAIALKKFSLEDASKFIVCVSQSSRIKLITEEEFKQICFNSSSPERDRLIIVPKEKPCPSFEDLRRSWEIELAQPAALSSQSSLSP | soluble |
| MRKAAVIGGSLGGLFAANLLLRAGWDVHVHERVHDELDGRGAGIVTHPELLDVLRRIGVAPTESIGIEVARRVTLDLDGSVLASRALPQLLTAWGRLFSILRTRFPAERYHRGQALESLEQDERRALLRFADGARAEVDLVVAADGLRSTLRQALLPQARPAYAGYVAWRGLVDEASLSERTRRELCPYFAFGLPAHEQMIAYPVAGTGSGAQDAARRFNFVWYRPADEHTTFRDMVTDAQGQAWMDGIPPPLIRPEIVAQARQAAAQVLAPQFGEVVAKTANLFFQPIFDLESPRLALGRVALLGDAAFVARPHCGMGVTKAAGDARALAYALAGTPDIGAALQAYEDERLPFGKFIVGHARDLGRYMQAQLRDDAEREMAERYRTPEAIMRETAVAPAWRLEHHHHHH | not soluble |
| MAHHHHHHMDAKLEARMASVWEVVSSRHAVEATDLSLIQNVTRALAAMHERVEQQHAELTRWHRQNYKLMCTMVVHVNWREEDHRQLRDELVNVRQQLGRVAVRGDVPLLRPRNGG | not soluble |
| AQKHVAIALCGKGNIGSSWLKLFAEQKEKLEQRHGMNFELVAVVDSQTYWFNEQGINPNQVATHFQDEALPNQEQSWLKKLGALEGYDEAVVIDVTASEELAEQYLDIAEHGLHLISANKVAGSAAGNYYYQVKDAFHKIGRHWLYNATVGAGLPINHTVRDLRESGDDIMALSGIFSGTLSWLFQQYDGSL | not soluble |
| MSLDENIVKTGSNEMELVDFRIFKQGHDKVYEGIYGVNVSKVREIIKIPSLTELPGVPDYIEGIFDLRGVVIPVVNLAKWMQITEPESTMLKPRVIITEFSNILIGFIVHEAKRIRRINWKDIEPATFSTGSGALDKGKITGVTRIENDEVLLILDLESVVEDLGIYAPKTDIDFGKIEKFTGTALILDDSMTARKRVKEMMQQMGFQVVEAKDGVEGINKLEELSQIYGESLNDTLKIIVSDVEMPQMDGFHFAARIKEDPRFKDIPIVFNSSLSNEFMNEKGVQEAGGEGYLVKFNASDFFNEIAKVIKKHQSQEGHHHHHH | soluble |
| MNNRIIYVVSDSVGETAELVVKAALSQFNGSADDTHVRRIPYVEDIGTINEVISLAKADGGIICFTLVVPEIREYLIAEAEKANVLYYDIIGPLIDKMETAYGLTAKYEPGRVRQLDEDYFKKVEAIEFAVKYDDGRDPRGILKADIVLIGVSRTSKTPLSQYLAHKRLKVANVPIVPEVDPPEELFNVDPKKCIGLKISPDKLNHIRKERLKSLGLNDKAIYANINRIKEELEYFEKIVDRIGCQVVDVSNKAVEETANIIHHLKTKNIAAALEHHHHHH | not soluble |
| MATLTEDDVLEQLDAQDNLFSFMKTAHSILLQGIRQFLPSLFVDNDEEIVEYAVKPLLAQSGPLDDIDVALRLIYALGKMDKWLYADITHFSQYWHYLNEQDETPGFADDITWDFISNVNSITRNATLYDALKAMKFADFAVWSEARFSGMVKTALTLAVTTTLKELTP | soluble |
| MHVWPVQDAKARFSEFLDACITEGPQIVSRRGAEEAVLVPIGEWRRLQAAARPSLKQLLLSDSARTEMLVPERGKARRRQVEPLR | soluble |
| MGSDKIHHHHHHAQLSDNGYANVDWQFNAPLKNHFADKASGWGMNFEGGYFVTPNLGLGLFMNYSSNHEYFPRATFPVGEGTVNTDQQHTIFQLPFGAAARYQMNRGGAWQPYFGVKLGANYAKVRSNYNMFETRDNTWGFYVSPEIGLNVYPWAYGPGLHIAVYYSYATNKANVLTYNVDKLNNFGFRVGLAF | not soluble |
| ETLPLMMFTANGGGYLTYANKWLKDYFGMLEIQSGKTEWTSLVNSSDTKQVRDEWEKAQTNQTHFRAQAKLKSKTAESALWHLISLVPVKNDLNQITSWTGFFVDI | not soluble |
| MFNKLSTPIHIIGGGLAGCEASWQIAQSGIPVILHEMRPQKKSEAHKTGQLAELVCSNSFRSDDSSTNAVGLLHTEMRLAKSLIMKAADANKVPAGSALAVDRDGFSKTVTAALENHPLITIKREEIQEIPENWPHIIIATGPLTSPKLAKAIQTITGTEALSFFDAIAPIIYTDSINMDICWYQSRYDKIGPEGTGKDYLNCPLNKEQYEAFVQALKNAEKTEFRDFEKTPYFDGCLPIEVMAERGLETLRHGPMKPMGLTNAHNPTVKAYAVVQLRQDNKLGTLYNMVGFQTKLKYGEQVRIFRMIPGLENAEFARLGGLHRNTYLNSPIILDQTLRLKQRPGLRFAGQITGCEGYVESSAIGLLAGRFAAAEYHYNCPCLPPLTTALGLEHHHHHH | soluble |
| MGSDKIHHHHHHMPKQTFFNLKDEKRQRIIDAAEREFSQCPLYESSINNIIKDAKIPRGSFYQYFDDLSDLYGYYFSLILEDIQENLIDSVQEADGDIFSAVKKYAGEYMKEIISGNHRDFYRNFFLGANISKRSKDGKHPGFDVYHSDRMKELRVNLKKEVNWKLLKVTNEKDQNMIQQLIMMIFFHSFANYFVHSNNTDSDPAEVQKEIERNLNWLEFGARRTEDK | not soluble |
| MGSDKIHHHHHHMASTTPEGLEIRPRHLDFDLPDPMPRHWHSGDAFKTHMFNAMSVLFPDGERFFIDSVRHYRERVEDPALKQQIRGFIGQEGHHSREHLVYSDRLRALGYDIDRLEGGAKRRIRFAQQKLHPSRQLAATAALEHLTAIMADGLLSNPRWLEGADPTMARLWRWHALEETEHKAVAYDVFMLVNGKARLRRRAMVQGTFFFALDTTKGLVHMLKRDGLLWNFKVWRDGIKWLWGKDGVFRSLVGVYLDFYKKDFHPWQHNNLHLIEQYRDQFEPEPKAA | not soluble |
| GPGSMFRKAESAHAAINATHLTQPTPNCGTVLHVSIAMHDEGLDDHPNDRLFIRGLPQWATKEHLRQMFAPYGVITECAVLMNPLGQCKGSGFVQFSSQQEATAAIKARDSISMDNWPNQLEVKYSESAEVRQMRQERNRNRQRHWLPSPQYRGGNTPSSLPSPYPGFSPPLSLIPSPQAFPVMNAMPFSMVYSPTPATTGAP | soluble |
| MGHHHHHHSHMPKSQVKRQEVISELLVTEAAHVRMLRVLHDLFFQPMAECLFFPLEELQNIFPSLDELIEVHSLFLDRLMKRRQESGYLIEEIGDVLLARFDGAEGSWFQKISSRFCSRQSFALEQLKAKQRKDPRFCAFVQEAESRPRCRRLQLKDMIPTEMQRLTKYPLLLQSIGQNTEEPTEREKVELAAECCREILHHVNQAVRDMEDL | not soluble |
| MSQNATVNVDIKLGVNKFHVDEGHPHIILTENPDINEFRKLMKACPAGLYKQDDVGNIHFDPAGCLECGTCRVLCGNTILEQWQYPAGTFGIDFRYG | not soluble |
| MAHHHHHHMKARSSRPVTTITVTSEETIQTHNARDTPRTFEYKTKRNELMRRLEEMRNALEEDNNNNNKGSRVKLCYYDITFNCRDPVDVTVMSGFQRFEGLGDTLSGHMKCEEDDRHKFVGLIKEIIQLDVSHRARNMDKSEIAVVRIAANFKELNSTFTRSAATLL | not soluble |
| MSLDNQPLIVIYDEGAALPKDIVTELNGVAPLVLVINSNEHTRERISYFSRFGHVVDGSDIARAVSELAHLNPAGIVTFSERALRLTATLAKHLNLPFHNLETVYRLTDKYKQRVALQEAGIESIRFYLINTVSDWEQAVEQVCLPAVLKPAYGGGSIDTYLIEDPQTGKSLVEKLLSNKQVGFDGGRSLVLEEFLQGRPSLPFGDYVSVESLVVNGEIKHINVTGKMPLSPPFREYGHIWPSVLSDSEQNQIYALTSSAINVLGVNRGITHTELKLTEQGPRIIEVNGRVGGGINEMAKISLNISLLEMAARLALGKMIDEGHHHHHH | not soluble |
| GPGSMRARSLLRQQASAATLQPLRSVVAIGLRQEFDPHWPLPLPPPLPMNKQKHTLVLDIDETLIHTYAMGLHDDSKDHTRDPALQGVSLIDYNVLLRPHLKEFLEEVNQLFEVVFWTAGTASYCCAVLDALEQQVMQLPRSFYSYVELAKESRKMKSSTSHTNFYALSRTQTLEQQGYMKYLPMLGRKMSSVVMLDDNVRSFPLTPRNGIRIDAFDPDDHVLQRYIFALRRVQKEKPHEMEAALVQCLQQGQQE | not soluble |
| MADETDITHTKWLAYSKSLKIDLTYPGINGIGIIYNIQADQLDDYIEKQRVLRPNYAIHPSHNESEYWPITYVEPAAPNKKAIGLDMAFETNRYSSIKKARDTGVAQLTGPITLVQDAKKTPGFLFYTPFYKNGTKPESTEARRDAIDGVTYAPFIMKNLMQGTLAEKNRHVSIQIRDAGDLLFDDHDDESVLDADANPLFTKEQDISLYGRTWSFTIQSNLDFRDESAANQLEHHHHHH | soluble |
| MVLLIIRGDSYEKIKNAIADVHRHAKLTILGKPRIMVPEAADEILEHIVGNIKKPCKKACLVRIEENAPRAIDRIRKIHPPAHIVIVSERHEPYFYLLEDLPKMPLLKGYYKSKSLDSDEEIEESH | not soluble |
| SSGSKSSNSSAKKSAGKPQQGGDLVVGSIGEPTLFNSLYSTDDASTDIENMLYSFLTKTDEKLNVKLSLAESIKELDGGLAYDVKIKKGVKFHDGKELTADDVVFTYSVPLSKDYKGERGSTYEMLKSVEKKGDYEVLFKLKYKDGNFYNNALDSTAILPKHILGNVPIADLEENEFNRKKPIGSGPFKFKEWKQGQYIKLEANDDYFEGRPYLDTVTYKVIPDANAAEAQLQAGDINFFNVPATDYKTAEKFNNLKIVTDLALSYVYIGWNEKNELFKDKKVRQALTTALDRESIVSQVLDGDGEVAYIPESPLSWNYPKDIDVPKFEYNEKKAKQMLAEAGWKDTNGDGILDKDGKKFSFTLKTNQGNKVREDIAVVVQEQLKKIGIEVKTQIVEWSALVEQMNPPNWDFDAMVMGWSLSTFPDQYDIFHSSQIKKGLNYVWYKNAEADKLMKDAKSISDRKQYSKEYEQIYQKIAEDQPYTFLYYPNNHMAMPENLEGYKYHPKRDLYNIEKWWLAK | soluble |
| MLRQIVLMCAIHTACSFSIRDIINGKRGADAAIPAPCPTWHPFACPSGECVPIKYLCDGSPDCSDEYDENKSMCTAATRPPVEETQAFLKALMSAHGKDFLVKVFGPKAKAELSGMGGVDKVAVALSQTPTADLFASEMKLDDGETQHMLEVMEGILNGSTDELTSNEAADFRFFVQKLQETGFF | not soluble |
| QLLGATVVEHNPLYTAHELEGLFQDHGARVAIAWDKAASTLEKLRDTTSLETIISVNMTEAMPRIQQLALRIPIPPIAAKREQLTAFADNTVPWSTLIGNAIGGNGKRTEFPKVTKDDIALILYTSGTTGTPKGALLSHGNLVSNCFMGKAWVPGLGDQPER | not soluble |
| MAKSLLFITSFLKPRYNKPIMEKNWNVGTKYLNDKTRIIVVGITGREASQVVTESEALYPGFIKVGVTPGKGGTEVAGVPVFNTVKEALSSPEGKDVNTGLVYVPPASVKDAVIELIDAGIKLIYIVTEHVPIRDTVYFYHYAKERGVTIVGPTSLGCIVPRIPARIGAIGGKNPSIAYADGGLVILSKSGGLTTTTAEMFKRRGWGVYMALALGGDVISCTTFADVLEEIADDPNVKGVVIQGEVGGTYEEQAAETILRLYKEGRWNKPVAAFVAGKFQEKMEGVSFGHAGAIVERGKGKATDKIRMFNEVGKETGLVKVAEFYHDLVNCIEELGVPRDFEDSTPGGKVEPLYRTIDPETCEFKPQD | soluble |
